Tested on: Bovine submaxillary gland mucin (Sigma)

## mouse AMCase (acidic mammalian chitinase)
  degradation of mucin on 7.5% SDS-PAGE with silver staining after overnight incubation at 37 C, pH 5.0 (125 ug mucin, 500 ng mouse AMCase): the mucin was degraded by treatment with the AMCase
  flow rate of the mucin solution, measured in a vertically positioned glass pipette, after incubation with AMCase: increased with almost a factor of 2

— US20040253224
